In patent US10039841B2, “Gene therapy vector system and prodrug genes” (The Industry & Academic Cooperation in Chungnam National …, priority 2016, dated 2018):

Tested on: U-87MG cells
Assay: Investigation of drug sensitivity against GCV and 5-FC (cell death of serially infected cells)
Format: cell-based
Method: The drug sensitivity against ganciclovir (GCV) and 5-fluorocytosine (5-FC) of the virus spRRVe-P1-yCD/sRRVgp-P1-TK produced in Example <3-1> was investigated.
Overall, 293T cells were co-transfected with spRRVe-P1-yCD/sRRVgp-P1-TK by using PLUS reagent (Invitrogen) and lipofectamine (Invitrogen). 2 days later, the supernatant was obtained. The U-87MG cells sub-cultured on the previous day in a 6-well plate at the density of 1.5×10^3 cells/well were added with 8 μl/ml of polybrene, followed by infection with the virus for 8 hours. 5 days after the infection (post-infection 5 d), the supernatant was obtained. The U-87MG cells sub-cultured on the previous day in a 6-well plate at the density of 1.5×10^3 cells/well were infected with the supernatant (p1). The infection was continued serially until p4 phase. The cells of each phase were treated with trypsin-EDTA to prepare single cells. The prepared single cells were distributed in a 12-well plate at the density of 1.5×10^3 cells/well. From the next day of the sub-culture, the cells were treated with […] of GCV and 1 mM 5-FC for 5 days or 8 days, followed by investigation of cell death.
The drug sensitivity of the virus produced in Example <6-2> against GCV and 5-FC was investigated by the same manner as described in Example <3-5> except that the virus produced in Example <6-2> was co-transfected.
(§1) The drug sensitivity of the virus produced in Example <7-2> against GCV and 5-FC was investigated by the same manner as described in Example <3-5> except that the virus produced in Example <7-2> was co-transfected to infect stepwise from p1 to p9 and cell death was observed after treating GCV and 5-FC for 9 or 12 days, respectively.
as §1, with “<8-2>” for “<7-2>”, “p11” for “p9”, “5” for “9”, “7 days.” for “12 days, respectively.”
as §1, with “<10-2>” for “<7-2>”, “p5” for “p9”, “6” for “9”, “8” for “12”
as §1, with “Example <11-2>” for “Example <7-2>”, “for 8” for “for 9”, “days, respetively.” for “days, respectively.”

[1] = Example 8-3, combined with sRRVgp-P2-TK, p1 to p11, treated 5 or 7 days

| Molecule | drug sensitivity against 5-FC [1] | further results |
| --- | --- | --- |
| CD8: yeast CD gene optimized by human codon (SEQ. ID. NO: 23) (nucleic acid, CD8 gene) DNA: ATGGTTACTGGGGGAATGGCATCTAAGTGGGATCAGAAAGGTATGGACATCGCTTATGAAGAGGCTGCTCTCGGCTACAAAGAGGGTGGAGTGCCTATCGGAGGGTGCCTGATCAACAACAAGGACGGCAGTGTGCTGGGGAGGGGCCACAATATGAGGTTCCAAAAAGGCTCCGCCACTCTCCACGGGGAAATTAGTACCCTCGAGAATTGCGGACGATTGGAAGGGAAGGTGTACAAGGATACAACACTGTACACCACCCTGTCACCCTGTGATATGTGCACAGGCGCCATTATCATGTACGGAATCCCTAGATGTGTCGTGGGGGAGAATGTAAACTTCAAAAGTAAGGGGGAGAAATATCTCCAGACCCGGGGGCACGAAGTCGTCGTTGTGGACGATGAACGGTGTAAGAAGATCATGAAGCAGTTTATCGATGAGAGGCCCCAGGACTGGTTCGAAGACATCGGGGAATAA | excellent drug sensitivity, compared to yCD gene | – |
| CD7: yeast CD gene optimized by human codon (SEQ. ID. NO: 22) (nucleic acid, CD7 gene) DNA: ATGGTAACTGGTGGCATGGCCTCAAAGTGGGATCAGAAAGGAATGGACATCGCTTACGAGGAGGCCGCACTGGGCTATAAGGAGGGCGGCGTCCCTATAGGCGGTTGCCTGATTAACAATAAAGACGGCTCAGTGCTGGGAAGGGGGCACAACATGAGATTTCAGAAAGGCAGCGCAACTCTGCACGGCGAAATCTCCACTCTGGAGAACTGCGGGCGGCTGGAGGGAAAGGTTTATAAAGATACTACCTTGTATACAACTCTGTCCCCCTGCGATATGTGCACCGGCGCCATCATAATGTACGGAATACCCAGGTGCGTGGTGGGAGAGAACGTGAATTTTAAGTCAAAAGGTGAGAAGTACCTGCAGACTCGCGGCCATGAGGTGGTTGTTGTTGACGATGAAAGGTGCAAGAAGATTATGAAGCAGTTCATTGATGAAAGACCCCAGGACTGGTTTGAGGATATCGGAGAGTAG | excellent drug sensitivity, compared to yCD gene | – |
| CD4: CD gene where 32 sites showing recombination were all mutated (SEQ. ID. NO: 19) (nucleic acid, CD4 gene) DNA: ATGGTGACAGGGGGAATGGCAAGCAAGTGGGATCAGAAGGGTATGGACATTGCCTATGAGGAGGCGGCCTTAGGTTACAAAGAGGGTGGTGTTCCTATTGGCGGATGTCTTATCAATAACAAAGACGGAAGTGTTCTCGGTCGTGGTCACAACATGAGATTTCAAAAGGGATCCGCCACACTACATGGTGAGATCTCCACTTTGGAGAACTGCGGCAGGCTGGAAGGCAAGGTGTACAAAGATACCACTCTGTACACCACCCTGTCTCCATGCGACATGTGTACAGGTGCCATCATCATGTATGGTATTCCACGCTGTGTTGTCGGTGAGAACGTTAATTTCAAAAGTAAGGGCGAGAAATACTTGCAAACCAGGGGCCACGAGGTGGTGGTTGTTGACGATGAGAGGTGTAAAAAGATCATGAAACAATTTATCGATGAAAGACCTCAGGACTGGTTCGAGGACATCGGCGAGTAA | – | drug sensitivity against 5-FC (Example 6-3, spRRVe-P1-CDs/sRRVgp-P1-TK, p1-p4): weak drug sensitivity |
| CD6: yeast CD gene optimized by human codon (SEQ. ID. NO: 21) (nucleic acid, CD6 gene) DNA: ATGGTTACTGGAGGGATGGCCAGTAAATGGGACCAGAAGGGTATGGATATTGCATACGAGGAGGCCGCTTTGGGATACAAGGAGGGGGGTGTCCCTATAGGCGGTTGCCTGATCAATAATAAAGACGGCTCTGTCTTGGGAAGAGGACACAATATGCGCTTTCAGAAGGGAAGCGCCACCCTGCATGGAGAGATCTCTACCCTCGAAAATTGCGGAAGGCTCGAAGGCAAAGTTTACAAAGATACCACCCTCTACACAACGCTGTCCCCCTGTGATATGTGCACCGGTGCCATTATCATGTATGGCATCCCACGCTGCGTTGTAGGAGAGAATGTAAACTTCAAATCCAAGGGAGAGAAGTATCTCCAGACCCGAGGGCACGAAGTTGTGGTGGTGGACGATGAAAGGTGTAAGAAGATCATGAAGCAGTTCATAGATGAGCGGCCTCAGGACTGGTTCGAGGATATTGGCGAATGA | excellent drug sensitivity, compared to yCD gene | drug sensitivity against GCV and 5-FC (Example 10-3, spRRVe-P2-CDs (CD6, CD10-CD16)/sRRVgp-P2-TK, p1 to p5, treated 6 or 8 days): most excellent drug sensitivity |
| yCD: yeast cytosine deaminase gene (SEQ. ID. NO: 16) (nucleic acid, listed as Saccharomyces cerevisiae) DNA: ATGGTGACAGGGGGAATGGCAAGCAAGTGGGATCAGAAGGGTATGGACATTGCCTATGAGGAGGCGGCCTTAGGTTACAAAGAGGGTGGTGTTCCTATTGGCGGATGTCTTATCAATAACAAAGACGGAAGTGTTCTCGGTCGTGGTCACAACATGAGATTTCAAAAGGGATCCGCCACACTACATGGTGAGATCTCCACTTTGGAAAACTGTGGGAGATTAGAGGGCAAAGTGTACAAAGATACCACTTTGTATACGACGCTGTCTCCATGCGACATGTGTACAGGTGCCATCATCATGTATGGTATTCCACGCTGTGTTGTCGGTGAGAACGTTAATTTCAAAAGTAAGGGCGAGAAATATTTACAAACTAGAGGTCACGAGGTTGTTGTTGTTGACGATGAGA | – | drug sensitivity against 5-FC (Example 3-5, 1 mM 5-FC for 5 days or 8 days, post-infection 5 d to p4): low drug sensitivity |
